According to paper PMC10387068:

Assays:
[1] = molecular target: DEP-Venus (isolated DEP domain of human DVL2 tagged with mVenus) (UniProt O14641); experiment: direct BRET titration; conditions: HEK293A cells, constant receptor-Nluc plasmid, increasing DEP-Venus plasmid, read off a plot; for other: BRETmax: parent: est. 0.23; for other: log BRET50: parent: est. 2.6
[2] = molecular target: heterotrimeric Gq 4A (Gαq 4A with Venus(1-155)-β1 and Venus(156-239)-γ2), P50148;P62873;P59768; experiment: BRET assay (receptor-Nluc and Venus-tagged βγ subunits); conditions: values normalized to cells transfected with the same FZD5-Nluc construct but no Gq 4A; parent: est. 111; read off a plot

Substance	other: BRETmax [1]	other: log BRET50 [1]	response [2] [% BRET]
FZD5-Nluc (wild-type human Frizzled-5, C-terminally tagged with Nanoluciferase) (from UniProt Q13467) W6×61A	0.14	2.7	102
FZD5-Nluc (wild-type human Frizzled-5, C-terminally tagged with Nanoluciferase) (from UniProt Q13467) Y2×39A	0.17	3.4	108
FZD5-Nluc (wild-type human Frizzled-5, C-terminally tagged with Nanoluciferase) (from UniProt Q13467) F4×45A	0.14	3.1	102
FZD5-Nluc (wild-type human Frizzled-5, C-terminally tagged with Nanoluciferase) (from UniProt Q13467) Y6×51A	0.2	2.5	106
FZD5-Nluc (wild-type human Frizzled-5, C-terminally tagged with Nanoluciferase) (from UniProt Q13467) W7×55A	0.19	3.4	111
FZD5-Nluc (wild-type human Frizzled-5, C-terminally tagged with Nanoluciferase) (from UniProt Q13467) L3×52A	0.18	2.8	103
FZD5-Nluc (wild-type human Frizzled-5, C-terminally tagged with Nanoluciferase) (from UniProt Q13467) M3×37A	0.16	3	103
FZD5-Nluc (wild-type human Frizzled-5, C-terminally tagged with Nanoluciferase) (from UniProt Q13467) F3×29A	0.19	2.5	108
FZD5-Nluc (wild-type human Frizzled-5, C-terminally tagged with Nanoluciferase) (from UniProt Q13467) L5×62A	0.24	2.4	113
FZD5-Nluc (wild-type human Frizzled-5, C-terminally tagged with Nanoluciferase) (from UniProt Q13467) V3×44A	0.2	2.5	107
FZD5-Nluc (wild-type human Frizzled-5, C-terminally tagged with Nanoluciferase) (from UniProt Q13467) G5×65A	0.25	2.4	115
FZD5-Nluc (wild-type human Frizzled-5, C-terminally tagged with Nanoluciferase) (from UniProt Q13467) C2×50A	0.12	2.8	101
FZD5-Nluc (wild-type human Frizzled-5, C-terminally tagged with Nanoluciferase) (from UniProt Q13467) M6×30A	0.21	3.2	111
FZD5-Nluc (wild-type human Frizzled-5, C-terminally tagged with Nanoluciferase) (from UniProt Q13467) M7×44A	0.22	2.2	107
FZD5-Nluc (wild-type human Frizzled-5, C-terminally tagged with Nanoluciferase) (from UniProt Q13467) W3×43A	0.22	2.6	108
FZD5-Nluc (wild-type human Frizzled-5, C-terminally tagged with Nanoluciferase) (from UniProt Q13467) V45×52A	0.19	2.5	105
FZD5-Nluc (wild-type human Frizzled-5, C-terminally tagged with Nanoluciferase) (from UniProt Q13467) Y2×51A	0.15	2.7	101
FZD5-Nluc (wild-type human Frizzled-5, C-terminally tagged with Nanoluciferase) (from UniProt Q13467) L5×48A	0.16	2.7	102
FZD5-Nluc (wild-type human Frizzled-5, C-terminally tagged with Nanoluciferase) (from UniProt Q13467) Y6×53A	0.13	3.1	100
FZD5-Nluc (wild-type human Frizzled-5, C-terminally tagged with Nanoluciferase) (from UniProt Q13467) G6×34A	0.23	2.4	108
FZD5-Nluc (wild-type human Frizzled-5, C-terminally tagged with Nanoluciferase) (from UniProt Q13467) W8×54A	0.19	2.9	105
FZD5-Nluc (wild-type human Frizzled-5, C-terminally tagged with Nanoluciferase) (from UniProt Q13467) R6×32A	0.15	4.1	106
FZD5-Nluc (wild-type human Frizzled-5, C-terminally tagged with Nanoluciferase) (from UniProt Q13467) G5×58A	0.21	2.5	106
FZD5-Nluc (wild-type human Frizzled-5, C-terminally tagged with Nanoluciferase) (from UniProt Q13467) L6×52A	0.22	2.7	109
FZD5-Nluc (wild-type human Frizzled-5, C-terminally tagged with Nanoluciferase) (from UniProt Q13467) T1×50A	0.22	3.2	111
FZD5-Nluc (wild-type human Frizzled-5, C-terminally tagged with Nanoluciferase) (from UniProt Q13467) T1×53A	0.19	3.1	106
